Data published in patent publication US20220064331A1 (Genentech, published 2022).
One block for each binder: values may come before it.

Legend:
[1] = target: T1, human KLB expressed on cells (human, UniProt Q86Z14 53-1044); test: FACS on cells expressing hKLB, hKLA and chimeras; domain of hKLB recognized
T1 construct: on transfected 293 / HEK293 cells; also called hKLB; beta-Klotho

hKLB-ECD-HIS protein = target: T2, hKLB-ECD-HIS protein (human, UniProt Q86Z14 53-996); test: ELISA on hKLB-ECD-HIS protein, chimeric IgG (murine variable, hIgG1 constant regions), OD450
T2 construct: recombinant hKLB-ECD-HIS protein (R&D Systems); also called recombinant KLB-ECD protein; not shown: HIS tag
Description: In addition, some of the antibodies were ranked by ELISA. For these experiments, anti-KLB antibodies that were chimeric recombinant IgG with murine variable regions and hIgG1 constant regions were used to measure binding to hKLB-ECD-HIS protein.

binding result [1]: binds
binding result (hKLB-ECD-HIS protein): binds
B1: 11F1 (antibody, V domains shown)
VH: EVQLVESGGGLVKPGGSLKLSCAPSGFTFSSYGISWVRQTPEKRLEWVATVSSGGRYTYYPDSVKGRFTISRDNAENTLYLQMSSLRSEDTAMYYCTRGGDGYALDYWGQGTSVTVSS
VL: DIQMTQTTSSLSASLGDRVTIICSASQVISNYLNWYQQKPDGTVKLLIYFTSSLRSGVPSRFSGSGSGTDYSLTISNLEPEDVATYFCQQYSKLPWTFGGGTKLELK
notes: murine hybridoma-derived anti-KLB antibody

binding result [1]: binds
binding result (hKLB-ECD-HIS protein): binds
B2: 14E6 (antibody, V domains shown)
VH: EVPLQQSGPELVKPGATVKISCKPSGDTFTEYTMNWVRQSHGKSLEWIGGINPNNGETSYNQKFKGKATLTVDKSSSTAFMDLRILTSEDSAVYFCARKTTNYWGQGTTLIVSS
VL: DIQMTQSPSSLSASLGERVSLTCRASQEISGYLSWLQQKPDGTIKRLIYAASTLDSGVPRRFSGSRSGSDYSLTISSLESEDFADYYCLQYGSYPWTFGGGTKLELK
notes: as for B1

binding result (hKLB-ECD-HIS protein): binds
B3: 8E1 (antibody, V domains shown)
VH: EVQLQQSGAELVKPGASVKLSCTAADFNIKDTYMHWVKQRPEQGLEWIGRIDPSNGNAKYDPKFQGKASITADSSSNTAYLHLSSLTSEDTAVYYCASRALGNGYALGYWGQGTSVTVSS
VL: DIQMTQSSSYLSVSLGGSVTITCKASDHINNWLAWYQQKPGNAPRLLIYGTTNLETGVPSRFSGSGSGRDYILSITSLQSEDVASYYCQQYWNTPFTFGSGTKLEIK
notes: as for B1

binding result (hKLB-ECD-HIS protein): binds
B4: 8C5 (antibody, V domains shown)
VH: QVQLKQSGPGLVQPSQSLSVACTVSDFSLTTYGVHWVRQSPGKGLEWLGVIWSGGSTDYNAAFISRLTISKDNSKSQVFFKMNSLQTTDTAIYYCARDYGSTYVDAIDYWGQGTSVTVSS
VL: DIVLTQSPTSLAVSLGQRATISCRASESVESYGNRYMTWYQQKPGQPPKLLIYRAANLQSGIPARFSGSGSRTDFTLTIDPVEADDVATYYCQQSNEDPWTFGGGTKVEIK
notes: murine hybridoma-derived anti-KLB antibody; also called KLBmAb1

binding result [1]: binds
B5: 46C3 (antibody, V domains shown)
VH: EVQLQQSGAELVKPGASVKLSCTASDFNIIDTYIHWVKQRPEQGLEWIGRIDPANGNTKYDPKFQDKAALTSDTDSNTAYLLFNSLTSEDTAVYYCARGTSYSWFAYWGQGTLVSVSA
VL: AVLMTQTPLSLPVSLGDQASISCRSSQNIVHSDGNTYLEWYLQKPGQSPKLLIYKVSNRFSGVPDRFSGSGSGRDFTLKISRVEAGDLGVYYCFQGSHVLTFGAGTRLELK
notes: as for B1

binding result [1]: binds
B6: 21H3 (antibody, V domains shown)
VH: QVQLQQPGAEIVKPGASVRLSCKASGYSFTSYWIHWVKQRPGQGLEWIGEIDPSVSNSNYNQKFKGKATLTADKSSSTAYMQLSGLTSEDSAVYFCVRLGVMVYGSSPFWFAYWGQGTLVTVSA
VL: DIVMTQSQKFMSTSVGDRVSITCKASQFVSDAVAWYQQKPGQSPKLLICSASYRYTGVPDRFTGSGSGTDFTFTISSVRTEDLAVYYCQQHYIVPYTFGGGTTLEIE
notes: as for B1
